Measurements taken from patent publication US11708423B2, “Chimeric engulfment receptor molecules and methods of use” (CERO THERAPEUTICS, INC., priority 2017, dated 2023).
“Also recorded” adds a separate entry of the source.

Legend:
Type in all cases: cell-based
[1] = system: HCC827 lung adenocarcinoma cells; test: MTT viability and bright field microscopy of HCC827 cells with CER T cells and Osimeritinib; details: Osimeritinib 1 nM, 48 hours, CD4+ T cells
From the text: CD4+ T cells were transduced with lentiviral vectors encoding various CERs (CER21, CER108, CER104, CER129, CER27, CER120, CER122, CER123, CER124, or CER126). Mock transduced (vector only) CD4+ T cells were used as control. CER21 comprises a Tim4 binding domain, Tim4 transmembrane domain, and an engulfment signaling domain comprising a primary engulfment signaling domain comprising a TLR8 signaling domain. CER21 has a polypeptide sequence as set forth in SEQ ID NO:88. CER108 has a polypeptide sequence as set forth in SEQ ID NO:137 and comprises a Tim4 binding domain, Tim4 transmembrane domain, and an engulfment signaling domain comprising a primary engulfment signaling domain comprising a DAP12 signaling domain and a secondary engulfment signaling domain comprising a TLR8 signaling domain. CER104 has a polypeptide sequence as set forth in SEQ ID NO:133 and comprises a Tim4 binding domain, Tim4 transmembrane domain, and an engulfment signaling domain comprising a primary engulfment signaling domain comprising a TLR8 signaling domain and a secondary engulfment signaling domain comprising a DAP12 signaling domain. CER129 has a polypeptide sequence as set forth in SEQ ID NO:177 and comprises a Tim4 binding domain, Tim4 transmembrane domain, and an engulfment signaling domain comprising a primary engulfment signaling domain comprising a TLR8 signaling domain and a secondary engulfment signaling domain comprising a TRAF2 signaling domain. CER27 comprises a Tim4 binding domain, Tim4 transmembrane domain, and an engulfment signaling domain comprising a primary engulfment signaling domain comprising a TLR2 signaling domain. CER27 has a polypeptide sequence as set forth in SEQ ID NO:93. […] T cells were washed away, and the number of viable HCC827 cells was quantified using a calorimetric MTT assay. […]

[2] = system: A549 cells introduced with an ELM4-ALK translocation; test: Interferon Gamma secretion, A549 ALK+ co-culture; details: Crizotinib (3700 nM) or Alectinib (3700 nM), 18 hours, E:T 2:1 and 5:1
Method: After 18 hours of co-culture, bulk supernatants were evaluated for Interferon Gamma secretion (FIGS. 66A-B). Assays were performed using purified, tEGFR^+ (transduction marker), CER-expressing T cells 7 days after activation using CD3 & CD28 microbeads at effector: target ratios of (2:1 & 5:1). Control “Mock” T cells were transduced with vector alone.

ALK+A549 cells = test: LDH cytotoxicity assay, A549 ALK+ cells, 18 hours co-culture
Method: An ELM4-ALK translocation was introduced into A549 cells. […] Assays were performed with purified tEGFR^+ (transduction marker), CER-expressing T cells 7 days after activation using CD3 & CD28 microbeads at effector: target cell ratios of 2:1 or 5:1. Mock T cells were transduced with vector alone and used as control. After 18 hours of co-culture, bulk supernatants were evaluated using a LDH cytoxicity assay indicating cell killing (FIGS. 65A-B).

[3] = system: HCC159 lung adenocarcinoma cells; test: LDH-based cytotoxicity, HCC159 cells; details: Osimeritinib 0, 1, 5 nM; E:T 2:1 or 5:1; 18 hours
Method: HCC159 lung adenocarcinoma cells were co-cultured with CER123- or CER126-expressing CD4+ T cells with increasing concentrations of Osimeritnib (0, 1 nM, 5 nM). After 18 hours of co-culture, bulk supernatants were evaluated using a LDH-based cytotoxicity assay. T cells assays were performed using purified, EGFR^+ (transduction marker), CER modified T cells 7 days after activation using CD3 & CD28 microbeads at effector:target cell ratios of 2:1 or 5:1. Control “Mock” T cells were transduced with vector alone. […] Bulk supernatants were also analyzed after 18 hours of co-culture for Interferon Gamma (IFNγ) secretion (FIG. 50). Control “Mock” T cells were transduced with vector alone.

[4] = system: HCC159 lung adenocarcinoma cells; test: MTT viability of HCC159 cells co-cultured with CER T cells and Osimeritinib; details: Osimeritinib 0.1, 1, 5 nM; E:T 1:1, 2:1, 5:1; 48 hours
Method: HCC159 lung adenocarcinoma cells harboring an EGFR mutation were co-cultured with CER123- or CER126-expressing CD4+ T cells with increasing concentrations of Osimeritinib (0.1 nM, 1 nM, or 5 nM). Mock transduced (vector only) T cells were used as control. After 48 hours of co-culture at effector: target cell ratios at 1:1, 2:1 or 5:1 in the presence of drug, T cells were washed away, and the number of viable HCC159 cells was quantified using a calorimetric MTT assay. Cell viability experiments were performed in triplicates and presented as % of control with (FIG. 48A).

B1: CER21: Tim4 binding and transmembrane domains, TLR8 signaling domain; SEQ ID NO:88 (protein)
chain: MSKGLLLLWLVTELWWLYLTPAASEDTIIGFLGQPVTLPCHYLSWSQSRNSMCWGKGSCPNSKCNAELLRTDGTRIISRKSTKYTLLGKVQFGEVSLTISNTNRGDSGVYCCRIEVPGWFNDVKKNVRLELRRATTTKKPTTTTRPTTTPYVTTTTPELLPTTVMTTSVLPTTTPPQTLATTAFSTAVTTCPSTTPGSFSQETTKGSAFTTESETLPASNHSQRSMMTISTDIAVLRPTGSNPGILPSTSQLTTQKTTLTTSESLQKTTKSHQINSRQTILIIACCVGFVLMVLLFLAFLHHLFYWDVWFIYNVCLAKVKGYRSLSTSQTFYDAYISYDTKDASVTDWVINELRYHLEESRDKNVLLCLEERDWDPGLAIIDNLMQSINQSKKTVFVLTKKYAKSWNFKTAFYLALQRLMDENMDVIIFILLEPVLQHSQYLRLRQRICKSSILQWPDNPKAEGLFWQTLRNVVLTENDSRYNNMYVDSIKQY
modifications: CER21 chimeric engulfment receptor
- bright field microscopy of HCC827 co-culture [1]: cluster of dead HCC827 EGFR^+ cells surrounded by phagocytic CER21^+ T cells

B2: CER122: Tim4 binding and transmembrane domains, TLR2 primary and DAP12 secondary signaling domains; SEQ ID NO:149 (protein)
chain: MSKGLLLLWLVTELWWLYLTPAASEDTIIGFLGQPVTLPCHYLSWSQSRNSMCWGKGSCPNSKCNAELLRTDGTRIISRKSTKYTLLGKVQFGEVSLTISNTNRGDSGVYCCRIEVPGWFNDVKKNVRLELRRATTTKKPTTTTRPTTTPYVTTTTPELLPTTVMTTSVLPTTTPPQTLATTAFSTAVTTCPSTTPGSFSQETTKGSAFTTESETLPASNHSQRSMMTISTDIAVLRPTGSNPGILPSTSQLTTQKTTLTTSESLQKTTKSHQINSRQTILIIACCVGFVLMVLLFLAFLHRFHGLWYMKMMWAWLQAKRKPRKAPSRNICYDAFVSYSERDAYWVENLMVQELENFNPPFKLCLHKRDFIPGKWIIDNIIDSIEKSHKTVFVLSENFVKSEWCKYELDFSHFRLFDENNDAAILILLEPIEKKAIPQRFCKLRKIMNTKTYLEWPMDEAQREGFWVNLRAAIKSYFLGRLVPRGRGAAEAATRKQRITETESPYQELQGQRSDVYSDLNTQRPYYK
modifications: CER122 protein
- bright field microscopy of HCC827 co-culture [1]: cluster of dead HCC827 EGFR^+ cells surrounded by phagocytic CER122^+ T cells

B3: CER126: Tim4 binding and transmembrane domains, TLR2 primary and TRAF2 secondary signaling domains; SEQ ID NO:174 (protein)
chain: MSKGLLLLWLVTELWWLYLTPAASEDTIIGFLGQPVTLPCHYLSWSQSRNSMCWGKGSCPNSKCNAELLRTDGTRIISRKSTKYTLLGKVQFGEVSLTISNTNRGDSGVYCCRIEVPGWFNDVKKNVRLELRRATTTKKPTTTTRPTTTPYVTTTTPELLPTTVMTTSVLPTTTPPQTLATTAFSTAVTTCPSTTPGSFSQETTKGSAFTTESETLPASNHSQRSMMTISTDIAVLRPTGSNPGILPSTSQLTTQKTTLTTSESLQKTTKSHQINSRQTILIIACCVGFVLMVLLFLAFLHRFHGLWYMKMMWAWLQAKRKPRKAPSRNICYDAFVSYSERDAYWVENLMVQELENFNPPFKLCLHKRDFIPGKWIIDNIIDSIEKSHKTVFVLSENFVKSEWCKYELDFSHFRLFDENNDAAILILLEPIEKKAIPQRFCKLRKIMNTKTYLEWPMDEAQREGFWVNLRAAIKSMAAASVTPPGSLELLQPGFSKTLLGTKLEAKYLCSACRNVLRRPFQAQCGHRYCSFCLASILSSGPQNCAACVHEGIYEEGISILESSSAFPDNAARREVESLPAVCPSDGCTWKGTLKEYESCHEGRCPLMLTECPACKGLVRLGEKERHLEHECPERSLSCRHCRAPCCGADVKAHHEVCPKFPLTCDGCGKKKIPREKFQDHVKTCGKCRVPCRFHAIGCLETVEGEKQQEHEVQWLREHLAMLLSSVLEAKPLLGDQSHAGSELLQRCESLEKKTATFENIVCVLNREVERVAMTAEAC
modifications: CER126 protein
- Interferon Gamma secretion [2]: dose-dependent inducible cytokine secretion
- micrograph images of A549 co-culture (ALK+A549 cells; Crizotinib 3700 nM): near complete loss of Crizotinib-treated A549 cells
- cell killing of A549 ALK+ cells (LDH) (ALK+A549 cells; Crizotinib or Alectinib 0, 2500, 3700 nM, E:T 2:1 or 5:1, 18 hours): dose-dependent inducible cytokine secretion and cell killing responses
- cell killing of HCC159 cells (LDH) [3]: inducible cell killing responses
- growth/viability of HCC159 cells (MTT) [4]: dose-dependent target cell killing responses; also recorded: synergistically suppressed

B4: CER104: Tim4 binding and transmembrane domains, TLR8 primary and DAP12 secondary signaling domains; SEQ ID NO:133 (protein)
chain: MSKGLLLLWLVTELWWLYLTPAASEDTIIGFLGQPVTLPCHYLSWSQSRNSMCWGKGSCPNSKCNAELLRTDGTRIISRKSTKYTLLGKVQFGEVSLTISNTNRGDSGVYCCRIEVPGWFNDVKKNVRLELRRATTTKKPTTTTRPTTTPYVTTTTPELLPTTVMTTSVLPTTTPPQTLATTAFSTAVTTCPSTTPGSFSQETTKGSAFTTESETLPASNHSQRSMMTISTDIAVLRPTGSNPGILPSTSQLTTQKTTLTTSESLQKTTKSHQINSRQTILIIACCVGFVLMVLLFLAFLHHLFYWDVWFIYNVCLAKVKGYRSLSTSQTFYDAYISYDTKDASVTDWVINELRYHLEESRDKNVLLCLEERDWDPGLAIIDNLMQSINQSKKTVFVLTKKYAKSWNFKTAFYLALQRLMDENMDVIIFILLEPVLQHSQYLRLRQRICKSSILQWPDNPKAEGLFWQTLRNVVLTENDSRYNNMYVDSIKQYYFLGRLVPRGRGAAEAATRKQRITETESPYQELQGQRSDVYSDLNTQRPYYK
modifications: CER104 protein
- bright field microscopy of HCC827 co-culture [1]: cluster of dead HCC827 EGFR^+ cells surrounded by phagocytic CER104^+ T cells
